B1: NRAGE peptide-YFP (NRAGE peptide DNA in pEYFP-N1) (peptide)
chain: PPAWQTPPAWQTPPAWQTPPAWQT
notes: four repeats of the final consensus hexapeptide PPAWQT of the NRAGE repeat domain; also called pep-Y; NRAGE peptide DNA-YFP; source: 293T, co-transfected, in fixed cells; not shown: EYFP, C-terminal, kept
B2: NRAGE peptide-CFP (NRAGE peptide DNA in pECFP-N1) (peptide)
chain: PPAWQTPPAWQTPPAWQTPPAWQT
notes: four repeats of the final consensus hexapeptide PPAWQT of the NRAGE repeat domain; also called pep-C; NRAGE peptide DNA-CFP; source: 293T, co-transfected, in fixed cells; not shown: ECFP, C-terminal, kept

How the values were obtained:
Assay in all cases: FRET or BRET; donor dequenching ECFP:EYFP FRET, confocal; co-transfected 293T cells, fixed with 4% paraformaldehyde 48 h after transfection; no BMP ligand
Conditions in all cases: partners not purified
[1] = biological target: T1, CFP-NRAGE (full-length NRAGE) (UniProt Q9ES73 1-775)
T1 construct: NRAGE (MAGE-D1), full length; the cloning of this construct is not described; also called C-NR; source: 293T, co-transfected, in fixed cells
T1 sequence (looked up): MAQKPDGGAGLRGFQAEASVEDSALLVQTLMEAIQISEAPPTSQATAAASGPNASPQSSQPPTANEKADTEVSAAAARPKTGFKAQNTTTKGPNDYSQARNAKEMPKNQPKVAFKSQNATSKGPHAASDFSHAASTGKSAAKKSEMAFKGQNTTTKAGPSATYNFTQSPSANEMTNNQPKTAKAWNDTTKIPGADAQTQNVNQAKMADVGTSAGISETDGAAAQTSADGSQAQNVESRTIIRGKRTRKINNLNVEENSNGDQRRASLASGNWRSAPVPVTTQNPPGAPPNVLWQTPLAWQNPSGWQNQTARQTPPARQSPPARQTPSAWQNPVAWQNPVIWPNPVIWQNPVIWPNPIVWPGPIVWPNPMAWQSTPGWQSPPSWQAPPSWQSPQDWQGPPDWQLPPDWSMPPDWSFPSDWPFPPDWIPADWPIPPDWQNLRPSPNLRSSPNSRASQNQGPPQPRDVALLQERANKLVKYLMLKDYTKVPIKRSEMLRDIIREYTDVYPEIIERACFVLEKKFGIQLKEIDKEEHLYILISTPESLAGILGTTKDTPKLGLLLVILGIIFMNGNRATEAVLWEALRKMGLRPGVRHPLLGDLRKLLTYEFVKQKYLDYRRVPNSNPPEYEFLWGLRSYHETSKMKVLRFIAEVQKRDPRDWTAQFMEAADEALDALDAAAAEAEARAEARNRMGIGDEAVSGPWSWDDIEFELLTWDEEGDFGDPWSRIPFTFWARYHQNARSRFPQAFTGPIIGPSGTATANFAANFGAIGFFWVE

ECFP-XIAP = biological target: T2, ECFP-XIAP (UniProt Q60989 1-496)
T2 construct: also called C-X; source: 293T, co-transfected, in fixed cells; not shown: ECFP, N-terminal, kept

EYFP-XIAP = biological target: T3, EYFP-XIAP (UniProt Q60989 1-496)
T3 construct: also called Y-X; source: 293T, co-transfected, in fixed cells; not shown: EYFP, N-terminal, kept

[2] = biological target: T4, YFP-NRAGE (full-length NRAGE) (UniProt Q9ES73 1-775)
T4 construct: NRAGE (MAGE-D1), full length; the cloning of this construct is not described; also called Y-NR; source: 293T, co-transfected, in fixed cells
T4 sequence (looked up): T1 sequence (looked up)

T2 sequence (Q60989 whole entry): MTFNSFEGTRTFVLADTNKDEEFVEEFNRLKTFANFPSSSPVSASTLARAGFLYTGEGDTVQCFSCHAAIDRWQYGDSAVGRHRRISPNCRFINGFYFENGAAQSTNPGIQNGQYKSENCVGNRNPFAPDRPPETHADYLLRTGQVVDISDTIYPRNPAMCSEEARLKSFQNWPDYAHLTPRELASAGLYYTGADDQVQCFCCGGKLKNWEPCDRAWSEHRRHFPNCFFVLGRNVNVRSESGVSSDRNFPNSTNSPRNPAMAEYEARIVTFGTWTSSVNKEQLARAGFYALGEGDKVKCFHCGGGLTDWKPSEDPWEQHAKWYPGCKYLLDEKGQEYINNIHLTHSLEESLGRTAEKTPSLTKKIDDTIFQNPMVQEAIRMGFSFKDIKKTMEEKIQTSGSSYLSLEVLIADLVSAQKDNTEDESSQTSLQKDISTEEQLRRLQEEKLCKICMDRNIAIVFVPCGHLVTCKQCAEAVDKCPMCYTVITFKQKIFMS
T3 sequence (Q60989 whole entry): as above

Binder | average peak energy transfer efficiency (FRET) [1] [%] | average peak energy transfer efficiency (FRET) (ECFP-XIAP) [%] | average peak energy transfer efficiency (FRET) (EYFP-XIAP) [%] | average peak energy transfer efficiency (FRET) [2] [%]
B1 | 0.36 | 0.34 | – | –
B2 | – | – | 0.46 | 0.41

Reference: article PMC3138748, “A Small Peptide Modeled after the NRAGE Repeat Domain Inhibits XIAP-TAB1-TAK1 Signaling for NF-κB Activation and Apoptosis in P19 Cells” (PLoS ONE, 2011)
